Test system: Bacillus subtilis
Assay: cleaved RNA product abundance (RNA/gDNA barcode ratio) relative to median wild-type variant (ratio to wild type); higher = more accumulation of the downstream cleavage product
Conditions: cleavage site: cggR-gapA (positions -7 to +36 mutated)
Outline: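 Cleaved product abundance was measured with barcoded reporter mRNAs (truncated aprE or tetM) carrying mutagenized RNase Y cleavage-site windows in the B. subtilis chromosome. Cultures in LB at 37°C grew from OD600 0.0003 to 0.3. Gel-selected cleaved RNA was reverse transcribed and barcode-sequenced with genomic DNA barcodes, and the RNA:gDNA barcode ratio per construct was scaled to the median construct bearing the unmutated site.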

[1] = experiment (reporter, strain, medium): exp 4a: truncated aprE reporter, strain BJT201 with 2% xylose (RNase J1 expressed)
[2] = experiment (reporter, strain, medium): exp 2b: truncated aprE reporter, strain BJT200
[3] = experiment (reporter, strain, medium): exp 6: tetM reporter, strain 168

Sequence | cleaved RNA product abundance [1] | cleaved RNA product abundance [2] | cleaved RNA product abundance [3]
ACAGACGAAGGAGCCGCAAAGAAGTTCTTAAGGGATGAATAATCCATCAATATAAATATCTCTCACTTATTTAAA | 0.199 |  | 
ACAGACGAAGGAGCCGCAAAGAAGTTCTTAAGGGATGAATAATCCCACAATATAAATATCTCTCACTTATTTAAA |  | 0.119 | 
ACAGACGAAGGAGCCGCAAAGAAGTTCTTAAGGGATGAATAATCCCTAAATATAAATATCTCTCACTTATTTAAA | 0.193 | 0.236 | 
ACAGACGAAGGAGCCGCAAAGAAGTTCTTAAGGGATGAATAATCCCTCAAAATAAATATCTCTCACTTATTTAAA | 0.182 |  | 
ACAGACGAAGGAGCCGCAAAGAAGTTCTTAAGGGATGAATAATCCCTCAATATAAAAATCTCTCACTTATTTAAA |  | 0.181 | 
ACAGACGAAGGAGCCGCAAAGAAGTTCTTAAGGGATGAATAATCCCTCAATATAAATAACTCTCACTTATTTAAA | 0.162 |  | 
ACAGACGAAGGAGCCGCAAAGAAGTTCTTAAGGGATGAATAATCCCTCAATATAAATATCTCTCACTTATTTAAA | 0.254 | 0.168 | 0.299
ACAGACGAAGGAGCCGCAAAGAAGTTCTTAAGGGATGAATAATCCCTCAATTTAAATATCTCTCACTTATTTAAA | 0.0838 |  | 
ACAGACGAAGGAGCCGCAAAGAAGTTCTTAAGGGATGAATAATCCTTCAATATAAATATCTCTCACTTATTTAAA |  | 0.139 | 
ACAGACGAAGGAGCCGCAAAGAAGTTCTTAAGGGATGAATAATCTCTCAATATAAATATCTCTCACTTATTTAAA | 0.199 |  | 
ACAGACGAAGGAGCCGCAAAGAAGTTCTTAAGGGATGAATAATGCCTCAATATAAATATCTCTCACTTATTTAAA |  | 0.0955 | 
ACAGACGAAGGAGCCGCAAAGAAGTTCTTAAGGGATGAATATTCCCTCAATATAAATATCTCTCACTTATTTAAA | 0.245 |  | 
ACAGACGAAGGAGCCGCAAAGAAGTTCTTAAGGGATGAATGATCCCTCAATATAAATATCTCTCACTTATTTAAA |  | 0.107 | 
ACAGACGAAGGAGCCGCAAAGAAGTTCTTAAGGGATGAATTATCCCTCAATATAAATATCTCTCACTTATTTAAA | 0.126 |  | 
ACAGACGAAGGAGCCGCAAAGAAGTTCTTAAGGGATTAATAATCCCTCAATATAAATATCTCTCACTTATTTAAA | 0.301 |  | 
ACAGACGAAGGAGCCGCAAAGAAGTTCTTAAGGTATGAATAATCCCTCAATATAAATATCTCTCACTTATTTAAA | 0.145 |  | 
ACAGACGAAGGAGCCGCAAAGAAGTTCTTAAGTGATGAATAATCCCTCAATATAAATATCTCTCACTTATTTAAA | 0.0965 | 0.0656 | 
ACAGACGAAGGAGCCGCAAAGAAGTTCTTAATGGATGAATAATCCCTCAATATAAATATCTCTCACTTATTTAAA | 0.119 |  | 
ACAGACGAAGGAGCCGCAAAGAAGTTCTTCAGGGATGAATAATCCCTCAATATAAATATCTCTCACTTATTTAAA | 0.262 |  | 
ACAGACGAAGGAGCCGCAAAGAAGTTGTAAAGGGATGAATAATCCCTCAATATAAATATCTCTCACTTATTTAAA |  | 0.272 | 
ACAGACGAAGGAGCCGCAAAGAAGTTGTTAAAGGATGAATAATCCCTCAATATAAATATCTCTCACTTATTTAAA | 0.0874 |  | 
ACAGACGAAGGAGCCGCAAAGAAGTTGTTAAGAGATGAATAATCCCTCAATATAAATATCTCTCACTTATTTAAA | 0.103 |  | 
ACAGACGAAGGAGCCGCAAAGAAGTTGTTAAGCGATGAATAATCCCTCAATATAAATATCTCTCACTTATTTAAA | 0.0544 |  | 
ACAGACGAAGGAGCCGCAAAGAAGTTGTTAAGGAATGAATAATCCCTCAATATAAATATCTCTCACTTATTTAAA | 0.136 |  | 

Sequence | cleaved RNA product abundance [1] | cleaved RNA product abundance [2] | cleaved RNA product abundance [3]
ACAGACGAAGGAGCCGCAAAGAAGTTGTTAAGGCATGAATAATCCCTCAATATAAATATCTCTCACTTATTTAAA |  | 0.103 | 
ACAGACGAAGGAGCCGCAAAGAAGTTGTTAAGGGAAGAATAATCCCTCAATATAAATATCTCTCACTTATTTAAA | 0.246 |  | 
ACAGACGAAGGAGCCGCAAAGAAGTTGTTAAGGGATAAATAATCCCTCAATATAAATATCTCTCACTTATTTAAA | 0.688 | 0.279 | 
ACAGACGAAGGAGCCGCAAAGAAGTTGTTAAGGGATGAATAAACCCTCAATATAAATATCTCTCACTTATTTAAA | 0.2 |  | 
ACAGACGAAGGAGCCGCAAAGAAGTTGTTAAGGGATGAATAATACCTCAATATAAATATCTCTCACTTATTTAAA |  | 0.101 | 0.134
ACAGACGAAGGAGCCGCAAAGAAGTTGTTAAGGGATGAATAATCACTCAATATAAATATCTCTCACTTATTTAAA | 0.0768 |  | 
ACAGACGAAGGAGCCGCAAAGAAGTTGTTAAGGGATGAATAATCCCTAAATATAAATATCTCTCACTTATTTAAA | 0.376 | 0.274 | 
ACAGACGAAGGAGCCGCAAAGAAGTTGTTAAGGGATGAATAATCCCTCAAAATAAATATCTCTCACTTATTTAAA | 0.316 |  | 
ACAGACGAAGGAGCCGCAAAGAAGTTGTTAAGGGATGAATAATCCCTCAATATAAATACCTCTCACTTATTTAAA | 0.182 |  | 
ACAGACGAAGGAGCCGCAAAGAAGTTGTTAAGGGATGAATAATCCCTCAATATAAATATCTCTCACTTATTTAAA | 0.453 | 0.357 | 0.537
ACAGACGAAGGAGCCGCAAAGAAGTTGTTAAGGGATGAATAATCCCTCTATATAAATATCTCTCACTTATTTAAA | 0.411 |  | 
ACAGACGAAGGAGCCGCAAAGAAGTTGTTAAGGGATGAATAATCCCTTAATATAAATATCTCTCACTTATTTAAA | 0.892 |  | 
ACAGACGAAGGAGCCGCAAAGAAGTTGTTAAGGGATGAATAATCCGTCAATATAAATATCTCTCACTTATTTAAA | 0.418 |  | 
ACAGACGAAGGAGCCGCAAAGAAGTTGTTAAGGGATGAATAATTCCTCAATATAAATATCTCTCACTTATTTAAA | 0.404 |  | 
ACAGACGAAGGAGCCGCAAAGAAGTTGTTAAGGGCTGAATAATCCCTCAATATAAATATCTCTCACTTATTTAAA | 0.198 |  | 
ACAGACGAAGGAGCCGCAAAGAAGTTGTTAAGGTATGAATAATCCCTCAATATAAATATCTCTCACTTATTTAAA | 0.12 |  | 
ACAGACGAAGGAGCCGCAAAGAAGTTGTTAAGTGATGAATAATCCCTCAATATAAATATCTCTCACTTATTTAAA | 0.0952 |  | 
ACAGACGAAGGAGCCGCAAAGAAGTTGTTCAGGGATGAATAATCCCTCAATATAAATATCTCTCACTTATTTAAA | 0.446 |  | 
ACAGACGAAGGAGCCGCAAAGAAGTTTATAAGGGATGAATAATCCCTCAATATAAATATCTCTCACTTATTTAAA | 0.438 |  | 
ACAGACGAAGGAGCCGCAAAGAAGTTTATTAAGGGATGAATAATCCCTCAATATAAATATCTCTCACTTATTTAA | 0.754 |  | 
ACAGACGAAGGAGCCGCAAAGAAGTTTCTAAGGGATGAATAATCCCTCAATATAAATATCTCTCACTTATTTAAA | 0.344 | 0.234 | 
ACAGACGAAGGAGCCGCAAAGAAGTTTTAAGGGATGAATAATCCCTCAATATAAATATCTCTCACTTATTTAAAG | 0.15 |  | 
ACAGACGAAGGAGCCGCAAAGAAGTTTTTAAAGGATGAATAATCCCTCAATATAAATATCTCTCACTTATTTAAA | 0.192 |  | 

Source: the supplement of paper PMC11780869
